Assay results from PMC2658781, “Effective DNA Inhibitors of Cathepsin G by In Vitro Selection”.

Tests used:
Cathepsin G (CatG) [1] = biological target: T1, Cathepsin G (CatG) (Homo sapiens, UniProt P08311 21-244); experiment: SP Sepharose chromatography (Kd in figure only); 5 mM Mg2+; SELEX and Kd: 30 mM Tris-HCl pH 7.5, 150 mM NaCl, 5 mM KCl, 5 mM MgCl2, on ice/4 C; SPR: immobilized CatG, HBS-EP pH 7.4 running buffer, oligos in the Tris buffer, 25 C; settings: protein: native, label: 5' 32P
T1 sequence: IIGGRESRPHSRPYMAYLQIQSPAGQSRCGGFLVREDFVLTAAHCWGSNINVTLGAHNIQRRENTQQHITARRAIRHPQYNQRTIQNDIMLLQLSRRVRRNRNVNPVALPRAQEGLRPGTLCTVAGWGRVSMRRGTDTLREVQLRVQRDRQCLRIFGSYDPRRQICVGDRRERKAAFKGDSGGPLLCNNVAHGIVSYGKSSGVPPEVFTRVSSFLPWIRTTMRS

Cathepsin G (CatG) [2] = biological target: T1, Cathepsin G (CatG); experiment: SP Sepharose chromatography; no appreciable affinity; SELEX and Kd: 30 mM Tris-HCl pH 7.5, 150 mM NaCl, 5 mM KCl, 5 mM MgCl2, on ice/4 C; SPR: immobilized CatG, HBS-EP pH 7.4 running buffer, oligos in the Tris buffer, 25 C; settings: protein: native, label: 5' 32P

B1: CG51 (ssDNA)
DNA: CAACGTGTGATATGTGGGTATACGCTTGGGTGTTACGCTGAGCACAGAGGGTATTCGTGT
binding result (Cathepsin G (CatG) [1]; predicted fold about -2.52 kcal/mol): binds

B2: cCG51 (ssDNA)
DNA: ACACGAATACCCTCTGTGCTCAGCGTAACACCCAAGCGTATACCCACATATCACACGTTG
binding result (Cathepsin G (CatG) [1]): binds

B3: pE35 (PE35), L-Tyr aptamer (ssDNA)
DNA: AATTCGCTAGCTGGAGCTTGGATTGATGTGGTGTGTGAGTGCGGTGCCCGGATCC
binding result (Cathepsin G (CatG) [2]): no binding

B4: THR, thrombin aptamer (structured_DNA)
DNA: GGTTGGTGTGGTTGG
binding result (Cathepsin G (CatG) [2]; G-quartet, intramolecular): no binding
